In a protein production outcome set (Wang et al. 2014) one finds protein production data, which are given here for 10 sequences.

This data set in a line: label from the status in PepcDB records.
With “MDADNTAHLIYLSLLGAALVFWFISHNRASLGKTLQMALAWVFIFVGVIAVVGLWGDIRSTVAGTPRISVSENRVEIPRSPDGHYYATLIIEDKPLRFLVDTGASQVVLSHADAERLGIDTSALNYFGRAYTANGEVRTAPVKLGRVQLGGFTDQGVTAWVNEGEMSESLLGMDYLQRFRSIEIAGGTLVLAR”, the protein production entry is “failed”.

Regarding “MDALLGPPESSWEGADRSDADLRWARGGREARDRRDQLLPALHALNDRVGWISEGALDYVCRRLTVPPAEAYGVATFYAMFSVRPRPATVLHVCTDLACTAAGASRLCAAVESRLGPESGVKLERSPCLGLCERAPATLVIRAGESARPAQEDTPARPAFEDEAVQAEGGSGGAAPGDGGGTSRSSEAESGGGKGRRGRNTLHATAICAPATPDRAIAAATAPESAPTEPAPEAAVPQAGDPTLTLLHRIGTTDPTSLDDYRAHGGYTALRRAFALGPAAVIREVTDAGLVGRGGAAFPTGRKWQATAAQPDHPHYLVCNADESEPGTFKDRVLMEGDPYALVEAMTIAAYATGAHRGYLYLRGEYPRALARLTHAIEQARTRGLLGDDVLGQGYAFDIEIRRGAGAYICGEETALFNSIEGRRGEPRSKPPFPVEKGLFGKPTVENNVETLVNVLPILTMGAEAYAAIGTPTSTGPKLFCVSGTVARPGVYELPFGATLGELLALAGVRDNLRAVLLGGAAGGFVRPDELDIPLTFEGTREAGTTLGSGVVMAFDDTVPLPRLLLRIAEFFRDESCGQCVPCRVGTVRQEEALHRIADRTGAAAADDIALLREVGRAMRDASICGLGQTAWNAVESAIDRLGAYE”, the protein production entry was “failed”. The value for “MDALQLLTWSLILYLFASLASLFLLGLDRLAIKLSGITSLVGGVIGIISGITQLHAGVTLVARFAPPFEFADLTLRMDSLSAFMVLVISLLVVVCSLYSLTYMREYEGKGAAAMGFFMNIFIASMVALLVMDNAFWFIVLFEMMSLSSWFLVIARQDKTSINAGMLYFFIAHAGSVLIMIAFLLMGRESGSLDFASFRTLSLSPGLASAVFLLAFFGFGAKAGMMPLHSWLPRAHPAAPSHASALMSGVMVKIGIFGILKVAMDLLAQTGLPLWWGILVMAIGAISALLGVLYALAEQDIKRLLAWSTVENVGIILLAVGVAMVGLSLHDPLLTVVGLLGALFHLLNHALFKGLLFLGAGAIISRLHTHDMEKMGALAKRMPWTAAACLIGCLAISAIPPLNGFISEWYTWQSLFSLSRVEAVALQLAGPIAMVMLAVTGGLAVMCFVKMYGITFCGAPRSTHAEEAQEVPNTMIVAMLLLAALCVLIALSASWLAPKIMHIAHAFTNTPPATVASGIALVPGTFHTQVTPSLLLLLLLAMPLLPGLYWLWCRSRRAAFRRTGDAWACGYGWENAMAPSGNGVMQPLRVVFSALFRLRQQLDPTLRLNKGLAHVTARAQSTEPFWDERVIRPIVSATQRLAKEIQHLQSGDFRLYCLYVVAALVVLLIAIAV” was “failed”. For “MDALVSTKANSIAYQRSTVIIPAYNEEKRLMPVLYELCEYIRSNSLEWKVMVSIDGDDGTESNVKIMMQEYSFLSYSKGKGRGGKGAAIKRAITSATGEFVILMDADGSVPLKEIVKALDLTNYYDLIIFDRYSNRGNRIPFIRRFPSRGFNKLVRIFLGLKINDTQCGYKIIKREYAQRAFNKITISNAFFDVALLYYLKKERAKYIEIPVEYNYDRNSKFHVVELVLGEGISLIAFRIRNSRFYKYVPEKLISLYYRKFRWILEHHHHHH”, the protein production entry was “not failed”. For the sequence “MDASDDSLIGRITEVRAGRFAARLLSDEEGFRNEVSLGDEVQHPGQVGTYVSIRNGTFRILALVREVSGGAAGSAAGSAMQLVPLGEFNDKGAFSRGVRRYPVPGAEVHAASPQEINAVFARTRNLRFNPGYLPNHPATGVYLDPSALCSRHFAILGQSGAGKSWTVASLLQRMLASAPRAHIILLDLHGEYCWRGADGVLHSTFPPMATRAMDARELEIPYWLMSFAELVDLLIERDDPAASIQTAFLRETVFELKRRSARELGLEGVSIDAPVYFSLQEVYERFKEANEHRTDFGKTKGPLFGQFDDFLLKLGSRLHDVRYDFLLNPARRTRSESLPDLLRDFVGLGEPRCQISVIDLSPVPFDVRPTVSAQIGRLAFEFNYWNLDRREFPILLVCEEAHTYIPRERATQYEGTRKSMERIAKEGRKYGVGLAVVSQRPHELSETVLSQCGSYICLRISNPDDQAYVRKLVPEGEADLVDVLTALGRGEALILGEATPLPVRCQIFRPDPPPNSNDVDFHKAWNADTANLDIGAIVRRWWNQGR”, the protein production entry is “failed”. For “MDAYSWLLAVIILLPLISASVPIAASVRWKNVGWAIAAVVVSATFAMSVALAWMVPRAEDRLLAHQLGGVEVPIGIELFADEFSVIVLLLVLAVCLGVLVFTRIGGPRGNAFYSGFLLLVGGMMGILLTGDLFNMYVFLEIMAISSYALVSASKYRWSTYAAFKYLLVGTVGAGFYLLGVALVLASTGTLTMRLLPELLAAVGYTDPVVVAAFILMAVGLAIKIALFPVHTWLADAHASAPDGISAVISALVPAVAVYAFARVLFTVYTLDFIAANPVIGNLLLVAALFSLFAGSFFALLQDHIKLVLAYSTVSQFGLIFVGIAIANETAVFGAILQIFGHGVVKASLFVLAGMFALRFGGIRTLKEYSGVAERAPIMAGAFAVLGIAMIGLPPTVGFAGKWYIALGAFEAGLWQVSLLVLGSTLLSAGYILPFINRIYFHPFEGEDVDAAKVTTGMLIAIIIGAGIGLLLGFASAEIQAAVSTAVERLVA”, the protein production result is given as “failed”. For “MDCSESCHLKEPSKDRAFTHKPVVDEFKKSVHGAGHAPGATKDFHGGNRLEEETGQQNPSCRRCHSNTPYIKDANLERFKQELHHTETECGTCHQGETWRNQFSGHILRRLVGKNYDKMEANAMCVDCHGDHEAMAKVEIQDPETRERKKASFRFAHATDSYAKTLHGRLLAVNDESGASCIDCHAPDGFRHGILRDESKDSPTHPDRLGETCSQAGCHGYAKSPLNLGFLNTDLHDLDFLRMEDLSFALDFSRLDSAWYAAAWVLGPLGLIFLTSSLLSPLSRSRRAPVTEVVGYDHFQRVMIGGGSAKDGLWRRIRGRLVGGTPAVPVPAPLVEPGAPITSLTILFGSQTGNGEGVAADLEARLKAWGYSVELADMADYDPREIVNERLLFVIVSTHGEGQPPLPAEKLHGYLYAETAPRLEHLKFAVFALGDSSYKHFCKAGKDFDAFLQRLGASRVLDRVDADADFEEAAAAWIDAVLGCCRAIIGDTGIERPLEAEPVDHAVAKSGYGKTHPYPAAVLRNVNLNGEGSAKETRHIEIDLGDSGLSYEPGDALGVYPKNDPAYVEALLAALQADGYSEVTLGKETLSLREAFYKHLDITGLSRVLVEKYAELCDSRVLAGLLADPDPARLEGYLWGRQIIDLVEDFPIQGISPQTFVNVLRRLPPRLYSIASSMKAHPGQVHLTVGAVRYHAHGRNREGVCSTYLAGRIGPGERLAIFVQPNKHFRLPEDPETPLIMVGPGTGIAPFRGFVEEREVTGARGRNWLYFGDQRRATDYLYREEWEDKLRRGVLTRLDLAFSRDQERKVYVQTRMLENAREMYAWLEEGACFYVCGDASRMAQDVHRALLAIVMQEGGRTQEQAEEYLEAMAASRRYLRDVY”, the protein production entry is reported as “failed”.

In the case of “MDDEGLPRFAGVVYDQEEGIDALVGDFVEGLLARKLRVGGLLQGREPDAEGVTRTVVRVIGKARRIVISQNLGRHSTACSIDSAAIAEAAVALRQALEERPALIVGNRFGHLELEGAGMSEEMLDILASGTPFLIPVARRFEEGWRRFTGDMGDLLDPRPAALTAWFEALAPVTALEHHHHHH”, the protein production result is recorded as “failed”. As for “MDDGDTADDIMDATYRALCTHGYADLTMQDIADESDKSKAALHYHYDSKHDLLCAFLEYLYDGFVDRIEDPAGETPHERLLSLIDSVLDKPDDGSEEFGTAILEIRAHAPYEPGFRERLTKFDDYLVDELEVILEDGIADGTFKSDLDADETAQFIVTVLTGAATERVTTGRPVKCTRRMLTEYVETHLLDGQQEVTA”, the protein production entry is reported as “not failed”.

As to “MDDISVSKSNHGNVVVLNIKASSLADTSLPSNKHESSSPPLLSVHFLQKLLAELVGTYYLIFAGCAAIAVNAQHNHVVTLVGIAVVWGIVIMVLVYCLGHLSAHFNPAVTLALASSQRFPLNQVPAYITVQVIGSTLASATLRLLFDLNNDVCSKKHDVFLGSSPSGSDLQAFVMEFIITGFLMLVVCAVTTTKRTTEELEGLIIGATVTLNVIFAGEVSGASMNPARSIGPALVWGCYKGIWIYLLAPTLGAVSGALIHKMLPSIQNAEPEFSKTGSSHKRVTDLPL”, the protein production entry is reported as “failed”.
